Experiments:
Format in all cases: cell-based
[1] = system: C. aquaticum; assay: Lectin aggregation of bacterial cells (microtitre wells, semi-quantitative score); parameters: key: Where the addition of lectins did not cause the aggregation of cells, a score of “0” was assigned; Lectins that caused cellular-aggregation to give small flocs in a turbid suspension were given a score of “+”; A score of “++” was given to lectin-cell aggregate mixes that resulted in large aggregates seen by eye in a turbid suspension; Lectins that caused cellular aggregation to give easily visible aggregates in a clear solution were given a score of “+++”; settings: cells O.D. 0.5 at 650 nm
Method: (§1) Assay approach: Six lectins were chosen to discover their suitability for the aggregation of different species of bacteria. These were Concanavalin A, Lentil lectin, Pseudomonas aeruginosa lectin, peanut lectin, Limulus polyphemus lectin and wheat germ lectin.
(§2) The ability of the lectins to aggregate bacterial cells was studied by mixing cells at an O.D. of 0.5 at 650 nm with different lectins at different concentrations. The extent of aggregation was determined by a semi-quantitative approach. […] Lectins that caused cellular-aggregation to give small flocs in a turbid suspension were given a score of “+”. […] Lectins that caused cellular aggregation to give easily visible aggregates in a clear solution were given a score of “+++”.

[2] = system: E. coli S17-1 (K12); assay: as above; parameters: key: Where the addition of lectins did not cause the aggregation of cells, a score of “0” was assigned; Lectins that caused cellular-aggregation to give small flocs in a turbid suspension were given a score of “+”; A score of “++” was given to lectin-cell aggregate mixes that resulted in large aggregates seen by eye in a turbid suspension; Lectins that caused cellular aggregation to give easily visible aggregates in a clear solution were given a score of “+++”; settings: cells O.D. 0.5 at 650 nm
Method: as §1, §2

[3] = system: E. faecalis; assay: as above; parameters: key: Where the addition of lectins did not cause the aggregation of cells, a score of “0” was assigned; Lectins that caused cellular-aggregation to give small flocs in a turbid suspension were given a score of “+”; A score of “++” was given to lectin-cell aggregate mixes that resulted in large aggregates seen by eye in a turbid suspension; Lectins that caused cellular aggregation to give easily visible aggregates in a clear solution were given a score of “+++”; settings: cells O.D. 0.5 at 650 nm
Method: as §1, §2

[4] = system: S. plymuthica; assay: as above; parameters: key: Where the addition of lectins did not cause the aggregation of cells, a score of “0” was assigned; Lectins that caused cellular-aggregation to give small flocs in a turbid suspension were given a score of “+”; A score of “++” was given to lectin-cell aggregate mixes that resulted in large aggregates seen by eye in a turbid suspension; Lectins that caused cellular aggregation to give easily visible aggregates in a clear solution were given a score of “+++”; settings: cells O.D. 0.5 at 650 nm
Method: as §1, §2

[5] = system: Pseudomonas sp. Strain 2881; assay: Titration of ConA against bacterial suspension, aggregate size measured; settings: within 5.0% S.E.
Method: Aggregates of different size were constructed by titrating cona against suspensions of bacteria and observing the formation of aggregates. These were visible by eye as well as by optical microscope (FIG. 1).
Aggregate size was measured. A parabolic relationship between the ratio of ConA and bacterial density was observed (Table 3). […] This hypothesis reflects that established for antibody:antigen precipitation reactions.
Within an optimal range of […] and 0.6 mg/ml ConA, bacterial aggregates of 10 to >100 μm diameter could be reproducibly formed with a lectin excess that enabled further bacteria to be sequestered to the surface of the aggregate. The aggregates could be readily disassociated by the addition of approximately 50 mM maltose, glucose or sucrose to ConA, followed by 30s of gentle pipetting. This is ideal for the accurate enumeration of viable bacteria based upon CFU measurement on nutrient agar.

[6] = system: taxonomically distinct species of bacteria; assay: Lectins tested for potential to construct bacterial aggregates
From the text: We have selected the lectin Concanavalin A (ConA) as the most preferred (Sigma, Poole, Dorset, UK). Other lectins tested for their potential in the present invention were Wheat Germ Lectin (WGA), lectin from Limulus polyphemus and Peanut Agglutinin (PNA). […] However, ConA was the only lectin that strongly reacted with, and aggregated, over 15 taxonomically distinct species of bacteria. ConA was subsequently deemed the most preferable for use. However, any lectin is suitable for the invention as long as the lectin is capable of agglutinating the desired species.
as §1, §2

| Molecule | extent of aggregation (score) ([1]; lectin 1 × 10^−1 mg/mL) | extent of aggregation (score) ([1]; lectin 1 × 10^−2 mg/mL) | extent of aggregation (score) ([1]; lectin 1 × 10^−3 mg/mL) | extent of aggregation (score) ([2]; lectin 1 × 10^−1 mg/mL) | extent of aggregation (score) ([2]; lectin 1 × 10^−2 mg/mL) | extent of aggregation (score) ([2]; lectin 1 × 10^−3 mg/mL) | extent of aggregation (score) ([3]; lectin 1 × 10^−1 mg/mL) | extent of aggregation (score) ([3]; lectin 1 × 10^−2 mg/mL) | extent of aggregation (score) ([3]; lectin 1 × 10^−3 mg/mL) | extent of aggregation (score) ([4]; lectin 1 × 10^−1 mg/mL) | extent of aggregation (score) ([4]; lectin 1 × 10^−2 mg/mL) | extent of aggregation (score) ([4]; lectin 1 × 10^−3 mg/mL) | also measured |
| --- | --- | --- | --- | --- | --- | --- | --- | --- | --- | --- | --- | --- | --- |
| Concanavalin A | ++ | ++ | 0 | +++ | +++ | + | 0 | + | ++ | + | + | + | Size of aggregate ([5]; Amount of ConA 0.001 mg/ml): No aggregation; Size of aggregate ([5]; Amount of ConA 0.01 mg/ml): 11.2 μm; Size of aggregate ([5]; Amount of ConA 0.05 mg/ml): 53.4 μm; Size of aggregate ([5]; Amount of ConA 0.1 mg/ml): 106.7 μm; Size of aggregate ([5]; Amount of ConA 0.2 mg/ml): 91.2 μm; Size of aggregate ([5]; Amount of ConA 0.4 mg/ml): 73.1 μm; Size of aggregate ([5]; Amount of ConA 0.6 mg/ml): 55.4 μm; Size of aggregate ([5]; Amount of ConA 0.8 mg/ml): No aggregation; Size of aggregate ([5]; Amount of ConA 1.0 mg/ml): No aggregation; taxonomically distinct species of bacteria strongly reacted with, and aggregated [6]: over 15 |
| Lentil lectin (protein, UniProt P02870 31-210; P02870 218-269, looked up) Lectin beta chain: TETTSFSITKFSPDQKNLIFQGDGYTTKGKLTLTKAVKSTVGRALYSTPIHIWDRDTGNVANFVTSFTFVIDAPSSYNVADEFTFFIAPVDTKPQTGGGYLGVFNSKEYDKTSQTVAVEFDTFYNAAWDPSNKERHIGIDVNSIKSVNTKSWNLQNGERANVVIAFNAATNVLTVTLTYP Lectin alpha chain: VTSYTLNEVVPLKDVVPEWVRIGFSATTGAEFAAHEVHSWSFHSELGGTSSS | ++ | + | 0 | +++ | ++ | + | + | + | ++ | + | + | + | – |
